From PMC10794413

Molecular target: Hsp90 (hsp82 gene from Saccharomyces cerevisiae) with a C-terminal coiled-coil domain (Saccharomyces cerevisiae)

B1: free Cdc37 with the S14E phosphomimic (natural protein)
chain: MAIDYSKWDKIELEDDSDVEVHPNVDKKSFIKWKQQSIHEQRFKRNQDIKNLETQVDMYSHLNKRVDRILSNLPESSLTDLPAVTKFLNANFDKMEKSKGENVDPEIATYNEMVEDLFEQLAKDLDKEGKDSKSPSLIRDAILKHRAKIDSVTVEAKKKLDELYKEKNAHISSEDIHTGFDSSFMNKQKGGAKPLEATPSEALSSAAESNILNKLAKSSVPQTFIDFKDDPMKLAKETEEFGKISINEYSKSQKFLLEHLPIISEQQKDALMMKAFEYQLHGDDKMTLQVIHQSELMAYIKEIYDMKKIPYLNPMELSNVINMFFEKVIFNKDKPMGKESFLRSVQEKFLHIQKRSKILQQEEMDESNAEGVETIQLKSLDDSTELEVNLPDFNSKDPEEMKKVKVFKTLIPEKMQEAIMTKNLDNINKVFEDIPIEEAEKLLEVFNDIDIIGIKAILENEKDFQSLKDQYEQDHEDATMENLSLNDRDGGGDNHEEVKHTADTVD
- ATPase rate of Hsp90 with freely added Cdc37 and equimolar Ste11: Cdc37's reducing effect is abrogated: 1.1 ATP/min
